In PMC2834698:

Biological target: Arabidopsis thaliana transthyretin-like protein (TTL), 311-residue cytoplasmic isoform (Arabidopsis thaliana)
Assay: SEC + other: sucrose density gradient rate zonal ultracentrifugation; Siegel and Monty method: Stokes radius from analytical gel filtration (Superose 12 10/300, 0.5 ml/min) and sedimentation coefficient from 5 to 20% sucrose gradients (25 h 15 min, 260800 g, SW41 Ti), both in buffer C (150 mM NaCl, EDTA, 20 mM Tris-HCl, pH 8.0); native mass 137.3 kDa against a subunit of 36.6 kDa

stoichiometry N: 4
Substance: Arabidopsis thaliana transthyretin-like protein (TTL), 311-residue cytoplasmic isoform (enzyme)
